According to patent US20150086555A1:

B1: TCN-538 (3206_O17) (antibody, V domains shown)
VH: QITLKESGPTLVKPTQTLTLTCVFSGFSLSITGVRVGWIRQPPGKALEWLALISWDDEKHYSPSLQSRLTITKDTSKNQVVLTMTNLDPVDTATYYCARSTDRGHVLRYFGWMLPGDAFDVWGQGTMVTVSS
VL: DIVMTQSPDFLPVSLGERATINCKSSQRVLYSSNNKNYLAWYQLKPGQPPKLIIYWASTRESGVPDRFSGSGSGTEFTLTISSLQAEDVAVYYCQQYYSRPYTFGQGTKLEIK
B2: TCN-546 (5089_L08) (antibody, V domains shown)
VH: QVQLQQWGAGLLKPSETLSLTCGVYGGSLSDYYWSWIRQPPGKGLEWIGEINHSGGTNYNPSLKRRVTISVDTSKKQFSLKMNSVTAADTAVYYCARGTDPDTEVYCRAGNCAAFDFWGQGTLVTVSS
VL: EIVLTQSPGTLSLSPGERATLSCRASHFVIGRAVAWYQQKPGQAPRLLIYGASSRATGIPDRFSGSGSGTDFTLTISRLETEDFAVFYCQHYGSSPRYAFGQGTKLEIK
B3: TCN-522 (3212_I12) (antibody, V domains shown)
VH: QVQLQQWGAGLLKPSETLSLTCTVSGGSLTDYSWNWIRQPPGKGLEWIGDTLHNGYTNYNPSLRGRVSISIDTSKNQVSLRLTSVTAADTALYYCARGSGGYGGFDYFGKLRTWDFWGQGTLVTVSS
VL: DIQLTQSPSSLSASVGDRVTITCRASQGIRNDLGWYQQKPGNAPKRLIFGASSLQSGVPSRFSGSGSGTEFTLTISSLQPEDFATYYCLQHNSYPYTFGQGTKLEIK

Each binder was assayed against recombinant homotrimeric HA A/Hong Kong/156/97 H5N1 (Influenza A virus A/Hong Kong/156/97 (H5N1)) (assay: protein microarray, purified IgG, trimeric HA). Conditions: remark: other sources report otherwise.
Binder B1 has a Trimeric HA Binding: RLU of 7080 RLU. With B2 the Trimeric HA Binding: RLU was 890 RLU. With B3 the Trimeric HA Binding: RLU was 14800 RLU.

These binders were tested against recombinant homotrimeric HA A/chicken/Vietnam/NCVD-016/08 H5N1 (Influenza A virus A/chicken/Vietnam/NCVD-016/2008(H5N1)) (assay: protein microarray, purified IgG, trimeric HA). Conditions: remark: other sources report otherwise.
B1 gave a Trimeric HA Binding: RLU of 1060 RLU. B2 showed a Trimeric HA Binding: RLU of 207 RLU. In the case of B3, the Trimeric HA Binding: RLU is reported as 1960 RLU.

These binders were tested against recombinant homotrimeric HA A/Solomon Islands/3/06 H1N1 (Influenza A virus A/Solomon Islands/3/2006(H1N1)) (assay: protein microarray, purified IgG, trimeric HA). Conditions: remark: other sources report otherwise.
B1 showed a Trimeric HA Binding: RLU of 9740 RLU. In the case of B3, the Trimeric HA Binding: RLU is reported as 19100 RLU.

These binders were tested against recombinant homotrimeric HA A/Hong Kong/2108/03 H9N2 (Influenza A virus A/HK/2108/2003(H9N2)) (assay: protein microarray, purified IgG, trimeric HA). Conditions: remark: other sources report otherwise.
With B1 the Trimeric HA Binding: RLU was 172 RLU. In the case of B2, the Trimeric HA Binding: RLU is reported as 307 RLU.

What follows are binders tested against recombinant homotrimeric HA A/Japan/305/57 H2N2 (Influenza A virus A/Japan/305/1957(H2N2)) (assay: protein microarray, purified IgG, trimeric HA). Conditions: remark: other sources report otherwise.
Work on B1 yielded a Trimeric HA Binding: RLU of 20500 RLU. With B2 the Trimeric HA Binding: RLU was 503 RLU. B3 was tested, and the Trimeric HA Binding: RLU was 9740 RLU.

What follows are binders tested against recombinant homotrimeric HA A/Indonesia/5/05 H5N1 (Influenza A virus A/Indonesia/5/2005(H5N1)) (assay: protein microarray, purified IgG, trimeric HA). Conditions: remark: other sources report otherwise.
For B1, the Trimeric HA Binding: RLU was 7450 RLU. B2 showed a Trimeric HA Binding: RLU of 147 RLU. B3 was tested, and the Trimeric HA Binding: RLU was 12500 RLU.

Each binder was assayed against recombinant homotrimeric HA A/Anhui/1/05 H5N1 (Influenza A virus A/Anhui/1/2005(H5N1)) (assay: protein microarray, purified IgG, trimeric HA). Conditions: remark: other sources report otherwise.
B2 was tested, and the Trimeric HA Binding: RLU was 21400 RLU. In the case of B3, the Trimeric HA Binding: RLU is reported as 5260 RLU.

Each binder was assayed against recombinant homotrimeric HA A/South Carolina/1/18 H1N1 (Influenza A virus A/South Carolina/1/18 (H1N1)) (assay: protein microarray, purified IgG, trimeric HA). Conditions: remark: other sources report otherwise.
Work on B1 yielded a Trimeric HA Binding: RLU of 6770 RLU. B2 showed a Trimeric HA Binding: RLU of 88 RLU. B3 gave a Trimeric HA Binding: RLU of 4500 RLU.

Each binder was assayed against recombinant homotrimeric HA A/Wisconsin/67/05 H3N2 (Influenza A virus A/Wisconsin/67/2005(H3N2)) (assay: protein microarray, purified IgG, trimeric HA). Conditions: remark: other sources report otherwise.
In the case of B2, the Trimeric HA Binding: RLU is reported as 25500 RLU. In the case of B3, the Trimeric HA Binding: RLU is reported as 108 RLU.

These binders were tested against recombinant homotrimeric HA A/Netherlands/219/03 H7N7 (Influenza A virus A/Netherlands/219/03(H7N7)) (assay: protein microarray, purified IgG, trimeric HA). Conditions: remark: other sources report otherwise.
Binder B1 has a Trimeric HA Binding: RLU of 446 RLU. B2 was tested, and the Trimeric HA Binding: RLU was 386 RLU.

What follows are binders tested against recombinant homotrimeric HA A/Egypt/3300-NAMRU3/08 H5N1 (Influenza A virus A/Egypt/3300-NAMRU3/2008(H5N1)) (assay: protein microarray, purified IgG, trimeric HA). Conditions: remark: other sources report otherwise.
For B1, the Trimeric HA Binding: RLU was 7290 RLU. With B2 the Trimeric HA Binding: RLU was 11200 RLU. B3 was tested, and the Trimeric HA Binding: RLU was 11300 RLU.

Each binder was assayed against recombinant homotrimeric HA A/California/4/09 H1N1 (Influenza A virus A/California/04/2009(H1N1)) (assay: protein microarray, purified IgG, trimeric HA). Conditions: remark: other sources report otherwise.
B1 gave a Trimeric HA Binding: RLU of 4810 RLU. B2 was tested, and the Trimeric HA Binding: RLU was 277 RLU. Binder B3 has a Trimeric HA Binding: RLU of 13900 RLU.

What follows are binders tested against recombinant homotrimeric HA A/northern shoveler/California/HKWF115/07 H6N4 (Influenza A virus A/northern shoveler/California/HKWF115/2007(H6N1)) (assay: protein microarray, purified IgG, trimeric HA). Conditions: remark: other sources report otherwise.
Work on B1 yielded a Trimeric HA Binding: RLU of 11400 RLU. B3 showed a Trimeric HA Binding: RLU of 3180 RLU.

The binders below were run against recombinant homotrimeric HA A/Hong Kong/1073/99 H9N2 (Influenza A virus A/Hong Kong/1073/99 (H9N2)) (assay: protein microarray, purified IgG, trimeric HA). Conditions: remark: other sources report otherwise.
Work on B1 yielded a Trimeric HA Binding: RLU of 1270 RLU. Binder B2 has a Trimeric HA Binding: RLU of 505 RLU. With B3 the Trimeric HA Binding: RLU was 5050 RLU.

Each binder was assayed against recombinant homotrimeric HA A/Vietnam/1203/04 H5N1 (Influenza A virus A/VietNam/1203/2004(H5N1)) (assay: protein microarray, purified IgG, trimeric HA). Conditions: remark: other sources report otherwise.
Binder B1 has a Trimeric HA Binding: RLU of 14000 RLU. For B2, the Trimeric HA Binding: RLU was 1200 RLU. B3 was tested, and the Trimeric HA Binding: RLU was 11300 RLU.

These binders were tested against recombinant soluble homotrimeric HA of A/Wisconsin/67/05 (H3N2) (Influenza A virus A/Wisconsin/67/2005(H3N2)) (assay: HA microarray, BCC supernatant). Conditions: remark: other sources report otherwise.
B1 gave a Trimeric HA Binding: RLU of 6900 RLU. B2 gave a Trimeric HA Binding: RLU of 30200 RLU.

What follows are binders tested against recombinant soluble homotrimeric HA of A/Netherlands/219/03 (H7N7) (Influenza A virus A/Netherlands/219/03(H7N7)) (assay: HA microarray, BCC supernatant). Conditions: remark: other sources report otherwise.
For B2, the Trimeric HA Binding: RLU was 1450 RLU.

What follows are binders tested against recombinant soluble homotrimeric HA of A/Solomon Islands/3/06 (H1N1) (Influenza A virus A/Solomon Islands/3/2006(H1N1)) (assay: HA microarray, BCC supernatant). Conditions: remark: other sources report otherwise.
With B1 the Trimeric HA Binding: RLU was 33200 RLU. In the case of B3, the Trimeric HA Binding: RLU is reported as 38900 RLU.

These binders were tested against recombinant soluble homotrimeric HA of A/chicken/Vietnam/NCVD-016/08 (H5N1) (Influenza A virus A/chicken/Vietnam/NCVD-016/2008(H5N1)) (assay: HA microarray, BCC supernatant). Conditions: remark: other sources report otherwise.
Binder B1 has a Trimeric HA Binding: RLU of 37300 RLU. B2 gave a Trimeric HA Binding: RLU of 421 RLU.

These binders were tested against recombinant soluble homotrimeric HA of A/Indonesia/5/05 (H5N1) (Influenza A virus A/Indonesia/5/2005(H5N1)) (assay: HA microarray, BCC supernatant). Conditions: remark: other sources report otherwise.
For B1, the Trimeric HA Binding: RLU was 26400 RLU. B2 gave a Trimeric HA Binding: RLU of 18400 RLU. With B3 the Trimeric HA Binding: RLU was 67 RLU.

Each binder was assayed against recombinant soluble homotrimeric HA of A/Hong Kong/2108/03 (H9N2) (Influenza A virus A/HK/2108/2003(H9N2)) (assay: HA microarray, BCC supernatant). Conditions: remark: other sources report otherwise.
B1 gave a Trimeric HA Binding: RLU of 109 RLU. For B2, the Trimeric HA Binding: RLU was 13000 RLU. In the case of B3, the Trimeric HA Binding: RLU is reported as 639 RLU.

Each binder was assayed against recombinant soluble homotrimeric HA of A/Anhui/1/05 (H5N1) (Influenza A virus A/Anhui/1/2005(H5N1)) (assay: HA microarray, BCC supernatant). Conditions: remark: other sources report otherwise.
B1 was tested, and the Trimeric HA Binding: RLU was 689 RLU. With B2 the Trimeric HA Binding: RLU was 2040 RLU.

Each binder was assayed against recombinant soluble homotrimeric HA of A/northern shoveler/California/HKWF115/07 (H6) (Influenza A virus A/northern shoveler/California/HKWF115/2007(H6N1)) (assay: HA microarray, BCC supernatant). Conditions: remark: other sources report otherwise.
B1 gave a Trimeric HA Binding: RLU of 17400 RLU.

What follows are binders tested against recombinant soluble homotrimeric HA of A/Vietnam/1203/04 (H5N1) (Influenza A virus A/VietNam/1203/2004(H5N1)) (assay: HA microarray, BCC supernatant). Conditions: remark: other sources report otherwise.
B1 gave a Trimeric HA Binding: RLU of 60 RLU. For B2, the Trimeric HA Binding: RLU was 349 RLU. In the case of B3, the Trimeric HA Binding: RLU is reported as 145 RLU.

Each binder was assayed against recombinant soluble homotrimeric HA of A/California/4/09 (H1N1) (Influenza A virus A/California/04/2009(H1N1)) (assay: HA microarray, BCC supernatant). Conditions: remark: other sources report otherwise.
With B1 the Trimeric HA Binding: RLU was 13800 RLU. With B2 the Trimeric HA Binding: RLU was 350 RLU. Binder B3 has a Trimeric HA Binding: RLU of 5020 RLU.

Each binder was assayed against recombinant soluble homotrimeric HA of A/duck/Yangzhou/02/05 (H8N4) (Influenza A virus A/duck/Yangzhou/02/2005(H8N4)) (assay: HA microarray, BCC supernatant). Conditions: remark: other sources report otherwise.
B1 showed a Trimeric HA Binding: RLU of 6120 RLU. Binder B2 has a Trimeric HA Binding: RLU of 487 RLU. B3 showed a Trimeric HA Binding: RLU of 502 RLU.

These binders were tested against recombinant soluble homotrimeric HA of A/Japan/305/57 (H2N2) (Influenza A virus A/Japan/305/1957(H2N2)) (assay: HA microarray, BCC supernatant). Conditions: remark: other sources report otherwise.
In the case of B1, the Trimeric HA Binding: RLU is reported as 43000 RLU. Binder B2 has a Trimeric HA Binding: RLU of 520 RLU. B3 gave a Trimeric HA Binding: RLU of 989 RLU.
